From the supplement of paper PMC10724198
± gives the standard deviation of the averaged measurements.

The sequences below were run on Saccharomyces cerevisiae (assay: protein stability index of tFT-peptide fusion (C-terminal peptide) (PSI (0-1 scale)); higher = more stable (slower turnover)). Details: genetic background: wild type; temperature: 30 C.
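Further: PSI is a weighted mean of sequencing reads over stability bins, variants kept only with over 10 reads, mCherry proximal and sfGFP distal, peptide attached via GGGS linker.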

PPPHTRVIPSSP and PPPLCLHAPFPP are within error of each other in protein stability index: 0.6763 ± 0.0052 for the first, 0.626 ± 0.045 for the second.

PPPLDSPPPPPP and PPPLLPVPQPLF are within error of each other in protein stability index: 0.664 ± 0.019 for the first, 0.672 ± 0.087 for the second.

Going from PPPLLSPLSPPP to PPPLPAAHFSTP, the protein stability index rises from 0.571 to 0.663 ± 0.022.

First: PPPLPPPPHGVP
Second: PPPLPPPPPTRP
The protein stability index of the first is higher: 0.6889 ± 0.0066 for the first, 0.616 ± 0.063 for the second.

PPPLPPSPPHHP and PPPLPRPRSTAL are within error of each other in protein stability index: 0.689 ± 0.04 for the first, 0.674 ± 0.043 for the second.

Going from PPPLTVPLLSPP to PPPLVPPPPSSL, the protein stability index rises from 0.662 ± 0.046 to 0.731 ± 0.011.

PPPNPPATTTTP and PPPPALLPPPPA are within error of each other in protein stability index: 0.6685 ± 0.0012 for the first, 0.781 ± 0.27 for the second.

PPPPAPPLPPPP and PPPPFWPLSPAL are within error of each other in protein stability index: 0.707 ± 0.039 for the first, 0.713 ± 0.039 for the second.

PPPPGCLPRPAS and PPPPHPPSPSLP are within error of each other in protein stability index: 0.699 ± 0.021 for the first, 0.664 ± 0.1 for the second.

First: PPPPHTPPLPRS
Second: PPPPLLPRTPPH
The protein stability index of the first is higher: 0.757 ± 0.048 for the first, 0.54 ± 0.044 for the second.

Going from PPPPLLPSPFPP to PPPPLPATPGAS, the protein stability index rises from 0.653 ± 0.031 to 0.6857 ± 0.0018.

PPPPLPPPPSPL and PPPPLPPRPPPP are within error of each other in protein stability index: 0.653 ± 0.078 for the first, 0.704 ± 0.026 for the second.

Compared with PPPPLPRPPPPP, PPPPLSLPPVPL is higher in protein stability index: 0.615 ± 0.061 for the first, 0.736 ± 0.012 for the second.

PPPPLVPLPASP and PPPPPAPPALPP are within error of each other in protein stability index: 0.688 ± 0.072 for the first, 0.6734 ± 0.001 for the second.

PPPPPAPPLSLP and PPPPPARPSVPP are within error of each other in protein stability index: 0.61 ± 0.01 for the first, 0.673 ± 0.077 for the second.

Going from PPPPPASPPSAP to PPPPPDAPRSSL, the protein stability index rises from 0.605 ± 0.063 to 0.7043 ± 0.0066.

PPPPPHPALPVP and PPPPPIPRPPHA are within error of each other in protein stability index: 0.734 ± 0.016 for the first, 0.73 ± 0.03 for the second.

PPPPPLPLCRRP and PPPPPLPLPPPF are within error of each other in protein stability index: 0.756 ± 0.06 for the first, 0.697 ± 0.023 for the second.

First: PPPPPLPPAPPP
Second: PPPPPLPPLPCP
The protein stability index of the first is lower: 0.558 ± 0.022 for the first, 0.695 ± 0.03 for the second.

Compared with PPPPPLPPPPTP, PPPPPLPPQLSH is higher in protein stability index: 0.652 ± 0.058 for the first, 0.756 ± 0.011 for the second.

Compared with PPPPPLPSPTPP, PPPPPLPTPPPS is lower in protein stability index: 0.735 ± 0.024 for the first, 0.653 ± 0.036 for the second.

PPPPPLSPPSLV and PPPPPPCSPATS are within error of each other in protein stability index: 0.725 ± 0.02 for the first, 0.747 ± 0.14 for the second.

PPPPPPLPPPPL and PPPPPPLSVPPL are within error of each other in protein stability index: 0.671 ± 0.019 for the first, 0.695 ± 0.077 for the second.

PPPPPPPHHSPP and PPPPPPPPPSPP are within error of each other in protein stability index: 0.722 ± 0.047 for the first, 0.704 ± 0.0066 for the second.

First: PPPPPPPPPVLP
Second: PPPPPPPSLLLP
The protein stability index of the first is lower: 0.675 ± 0.0081 for the first, 0.828 ± 0.041 for the second.

PPPPPPPTPPPP and PPPPPPRPLAPS are within error of each other in protein stability index: 0.673 ± 0.014 for the first, 0.679 ± 0.029 for the second.

PPPPPPRPPSAH and PPPPPPRPPSSP are within error of each other in protein stability index: 0.708 ± 0.087 for the first, 0.694 ± 0.022 for the second.

First: PPPPPPSLPPPS
Second: PPPPPPSLPYLL
The protein stability index of the first is lower: 0.714 ± 0.015 for the first, 0.771 ± 0.042 for the second.

PPPPPPSPLTLP and PPPPPSAPSPLP are within error of each other in protein stability index: 0.775 ± 0.086 for the first, 0.665 ± 0.05 for the second.

PPPPPSPPPPPH and PPPPPYPPCIPL are within error of each other in protein stability index: 0.704 ± 0.0074 for the first, 0.695 ± 0.048 for the second.

PPPPRDPLPLPR and PPPPRPAPSAPY are within error of each other in protein stability index: 0.677 ± 0.018 for the first, 0.676 ± 0.045 for the second.

Compared with PPPPRPASPGSP, PPPPRPLPLPTT is higher in protein stability index: 0.622 ± 0.065 for the first, 0.751 ± 0.056 for the second.

Compared with PPPPRPLPTSRP, PPPPRPPPALLP is higher in protein stability index: 0.689 ± 0.012 for the first, 0.736 ± 0.021 for the second.

PPPPRPPPQSPS and PPPPRRAPPPGT are within error of each other in protein stability index: 0.724 ± 0.021 for the first, 0.699 ± 0.021 for the second.

Going from PPPPRSPPHPLL to PPPPRSPVCLPL, the protein stability index rises from 0.69 ± 0.013 to 0.792 ± 0.011.

PPPPSLPPPSRP and PPPPSPGPASPA are within error of each other in protein stability index: 0.7125 ± 0.0063 for the first, 0.716 ± 0.045 for the second.

PPPPSTRPSYSP and PPPPTALPHPDL are within error of each other in protein stability index: 0.756 ± 0.23 for the first, 0.604 ± 0.012 for the second.

Compared with PPPPTPHRSPLL, PPPPTQPPARPP is higher in protein stability index: 0.598 ± 0.029 for the first, 0.68 ± 0.014 for the second.

PPPPTRSRRNLP and PPPPVPPLYLPP are within error of each other in protein stability index: 0.705 ± 0.047 for the first, 0.684 ± 0.017 for the second.

Compared with PPPRLAPTLLPA, PPPRPDPPSLLD is lower in protein stability index: 0.5999 ± 0.0046 for the first, 0.545 ± 0.0085 for the second.

First: PPPRPHTPPQLA
Second: PPPRPPLALSPP
The protein stability index of the first is higher: 0.708 ± 0.019 for the first, 0.646 ± 0.032 for the second.

PPPRPPRPPCPF and PPPRPSPLSSSL are within error of each other in protein stability index: 0.732 ± 0.059 for the first, 0.678 ± 0.094 for the second.

Going from PPPRRPPSPPSP to PPPRTPGCPIPP, the protein stability index falls from 0.729 ± 0.021 to 0.5737 ± 0.0032.

Compared with PPPSLPATPIPP, PPPSPAPCPPSS is higher in protein stability index: 0.656 ± 0.055 for the first, 0.777 ± 0.043 for the second.

PPPSPDPPLTPF and PPPSPFLPSPFR are within error of each other in protein stability index: 0.723 ± 0.06 for the first, 0.7066 ± 0.0061 for the second.

PPPSPPPLPDPH and PPPSPPSPHAPP are within error of each other in protein stability index: 0.697 ± 0.079 for the first, 0.643 ± 0.1 for the second.

PPPSRPLLPFPP and PPPSRTPPLNPR are within error of each other in protein stability index: 0.706 ± 0.012 for the first, 0.741 ± 0.096 for the second.

PPPSSILSPSTS and PPPSSPPPLPLP are within error of each other in protein stability index: 0.659 ± 0.046 for the first, 0.681 ± 0.017 for the second.

PPPTAPPTTTTR and PPPTAPSLSSPS are within error of each other in protein stability index: 0.696 ± 0.055 for the first, 0.688 ± 0.047 for the second.

PPPTPPRPPPLP and PPPTPRIPRPLR are within error of each other in protein stability index: 0.7059 ± 0.0022 for the first, 0.717 ± 0.02 for the second.

Going from PPPTPRRPPCHT to PPPTVRLSCVPP, the protein stability index rises from 0.668 ± 0.045 to 0.794 ± 0.031.

PPPVLPPPPVSP and PPPVLSPRFPVL are within error of each other in protein stability index: 0.719 ± 0.03 for the first, 0.731 ± 0.14 for the second.

First: PPPVRFPSLPLA
Second: PPPVVLPSTLLS
The protein stability index of the first is higher: 0.8189 ± 0.0061 for the first, 0.6665 ± 0.0014 for the second.

PPRAHQSCPCRR and PPRALPPPLPLP are within error of each other in protein stability index: 0.719 ± 0.055 for the first, 0.72 ± 0.083 for the second.

PPRCHPPPPFPP and PPRGCLYFSRPP are within error of each other in protein stability index: 0.6466 ± 0.0047 for the first, 0.739 ± 0.095 for the second.

PPRGPPPPPADP and PPRHPSPGLVPT are within error of each other in protein stability index: 0.7 ± 0.022 for the first, 0.722 ± 0.04 for the second.

PPRLLATVTRGT and PPRLVPPLPPPL are within error of each other in protein stability index: 0.654 ± 0.025 for the first, 0.635 ± 0.048 for the second.

PPRPAPTSFKRG and PPRPPPLLPRTL are within error of each other in protein stability index: 0.718 ± 0.037 for the first, 0.707 ± 0.014 for the second.

Compared with PPRPPPPPPAPL, PPRPPPPRPPPL is higher in protein stability index: 0.688 ± 0.019 for the first, 0.742 ± 0.028 for the second.

PPRPRSARLFLR and PPRRPPPPPPLP are within error of each other in protein stability index: 0.728 ± 0.05 for the first, 0.7168 ± 0.0045 for the second.

PPRVVPDISTSL and PPSATPPHPPPS are within error of each other in protein stability index: 0.699 ± 0.039 for the first, 0.666 ± 0.052 for the second.

PPSGSFLFSVHP and PPSLFRFPPPPR are within error of each other in protein stability index: 0.734 ± 0.016 for the first, 0.709 ± 0.074 for the second.

PPSLPPHASPTP and PPSNSFHSSIPY are within error of each other in protein stability index: 0.762 ± 0.079 for the first, 0.678 ± 0.02 for the second.

PPSPAFSSSLPP and PPSPAPHATARP are within error of each other in protein stability index: 0.635 ± 0.025 for the first, 0.662 ± 0.062 for the second.

Compared with PPSPFHPPPPER, PPSPPILPPRPP is higher in protein stability index: 0.551 ± 0.013 for the first, 0.687 ± 0.015 for the second.

Compared with PPSPPPPSRPIH, PPSPPPPYPAPP is lower in protein stability index: 0.776 ± 0.021 for the first, 0.679 ± 0.015 for the second.

PPSPPRPHFPSL and PPSPRPVPPPCH are within error of each other in protein stability index: 0.739 ± 0.042 for the first, 0.705 ± 0.072 for the second.

PPSPSFLPPPPP and PPSQLPPPPASD are within error of each other in protein stability index: 0.676 ± 0.024 for the first, 0.746 ± 0.2 for the second.

PPSSGPPSPSSL and PPSSPPHSRRHG are within error of each other in protein stability index: 0.578 ± 0.095 for the first, 0.664 ± 0.055 for the second.

Compared with PPSVPSRLSHVL, PPTCRLQPYSRN is higher in protein stability index: 0.69 ± 0.034 for the first, 0.759 ± 0.013 for the second.

PPTLVPPFPTKV and PPTPPPPLPSSF are within error of each other in protein stability index: 0.742 ± 0.064 for the first, 0.77 ± 0.075 for the second.

PPTPRPHPPSRP and PPTPSAPHRTRI are within error of each other in protein stability index: 0.758 ± 0.022 for the first, 0.732 ± 0.026 for the second.

Compared with PPTPSPAPSPAP, PPTSHHHYHRQQ is higher in protein stability index: 0.601 ± 0.011 for the first, 0.695 ± 0.053 for the second.

PPVGPPFPPLPH and PPVLAPCLPLTG are within error of each other in protein stability index: 0.784 ± 0.13 for the first, 0.681 ± 0.067 for the second.

PPVLHSSEPPDS and PPWPPLLPRPSP are within error of each other in protein stability index: 0.707 ± 0.024 for the first, 0.666 ± 0.03 for the second.

First: PQLCSPLITIGV
Second: PQLLGWCVGPCR
The protein stability index of the first is lower: 0.5961 ± 0.0032 for the first, 0.694 ± 0.024 for the second.

PQPLNTLRLTSS and PQSVMFFGAPVW are within error of each other in protein stability index: 0.671 ± 0.034 for the first, 0.687 ± 0.034 for the second.

PQTPPPLLPPSL and PQTVAHPPPPPR are within error of each other in protein stability index: 0.671 ± 0.013 for the first, 0.688 ± 0.04 for the second.

PRAGPLAALSLS and PRCIELASMRRP are within error of each other in protein stability index: 0.695 ± 0.026 for the first, 0.681 ± 0.068 for the second.

Going from PRCVRFPPVTLL to PRDQPPDGHASP, the protein stability index falls from 0.7393 ± 0.0036 to 0.6717 ± 0.002.
